Here are results for two molecules from patent US20170042969A1.

The experiment deals with ornithine decarboxylase (ODC) present in Xenopus laevis oocytes. Description: cell-based or functional assay.

B1: hRS1-Reg(S20E) (protein, not shown: small tags and cut ends)
chain: SSGQEPDVGNPMSLARSVSASVCPIKPSDSDRIEPKAVKALKASAEFQLNSEKKEHLSLQDLSDHASSADHAPTDQSPAMPMQ
Take B1: the IC50 for down-regulation of hSGLT1 at low intracellular AMG, against hRS1-Reg wildtype worked out at 6300 times; the affinity for down-regulation of hSGLT1 in the presence of intracellular glucose, against hRS1-Reg wildtype was determined as 1.5e+07 times; the change of IC50 for down-regulation of hSGLT1 at high intracellular AMG (~250 µM) against low AMG is 300 fold; the increase of affinity for down-regulation of hSGLT1 against hRS1-Reg wildtype or hRS1-Reg(S20A) lay within 4000 to 6000 fold.

B2: hRS1-Reg(S20A) (protein, not shown: small tags and cut ends)
chain: SSGQAPDVGNPMSLARSVSASVCPIKPSDSDRIEPKAVKALKASAEFQLNSEKKEHLSLQDLSDHASSADHAPTDQSPAMPMQ
B2 yielded a decrease of affinity for down-regulation of hSGLT1 at high intracellular glucose of 7 to 8 fold.
